Reference: patent US20070015260A1, “Synthesis of synthons for the manufacture of bioactive compounds” (DIVERSA CORPORATION, priority 2002, published 2007)
Entries after “also recorded” stand apart in the source; their conditions may differ.

B1: S238D: DERA variant, phosphate binding pocket residue Ser238 replaced with Asp (protein, UniProt P0A6L0 1-259, looked up, variant S238D)
Deoxyribose-phosphate aldolase: MTDLKASSLRALKLMDLTTLNDDDTDEKVIALCHQAKTPVGNTAAICIYPRFIPIARKTLKEQGTPEIRIATVTNFPHGNDDIDIALAETRAAIAYGADEVDVVFPYRALMAGNEQVGFDLVKACKEACAAANVLLKVIIETGELKDEALIRKASEISIKAGADFIKTSTGKVAVNATPESARIMMEVIRDMGVEKTVGFKPAGGVRTAEDAQKYLAIADELFGADWADARHYRFGADSLLASLLKALGHGDGKSASSY
B2: G205E: DERA variant, neutral phosphate binding pocket residue Gly205 replaced with Glu (protein, UniProt P0A6L0 1-259, looked up, variant G205E)
Deoxyribose-phosphate aldolase: MTDLKASSLRALKLMDLTTLNDDDTDEKVIALCHQAKTPVGNTAAICIYPRFIPIARKTLKEQGTPEIRIATVTNFPHGNDDIDIALAETRAAIAYGADEVDVVFPYRALMAGNEQVGFDLVKACKEACAAANVLLKVIIETGELKDEALIRKASEISIKAGADFIKTSTGKVAVNATPESARIMMEVIRDMGVEKTVGFKPAGEVRTAEDAQKYLAIADELFGADWADARHYRFGASSLLASLLKALGHGDGKSASSY
B3: K172E: DERA variant, basic phosphate binding pocket residue Lys172 mutated to Glu (protein, UniProt P0A6L0 1-259, looked up, variant K172E)
Deoxyribose-phosphate aldolase: MTDLKASSLRALKLMDLTTLNDDDTDEKVIALCHQAKTPVGNTAAICIYPRFIPIARKTLKEQGTPEIRIATVTNFPHGNDDIDIALAETRAAIAYGADEVDVVFPYRALMAGNEQVGFDLVKACKEACAAANVLLKVIIETGELKDEALIRKASEISIKAGADFIKTSTGEVAVNATPESARIMMEVIRDMGVEKTVGFKPAGGVRTAEDAQKYLAIADELFGADWADARHYRFGASSLLASLLKALGHGDGKSASSY
B4: R207E: DERA variant, basic phosphate binding pocket residue Arg207 mutated to Glu (protein, UniProt P0A6L0 1-259, looked up, variant R207E)
Deoxyribose-phosphate aldolase: MTDLKASSLRALKLMDLTTLNDDDTDEKVIALCHQAKTPVGNTAAICIYPRFIPIARKTLKEQGTPEIRIATVTNFPHGNDDIDIALAETRAAIAYGADEVDVVFPYRALMAGNEQVGFDLVKACKEACAAANVLLKVIIETGELKDEALIRKASEISIKAGADFIKTSTGKVAVNATPESARIMMEVIRDMGVEKTVGFKPAGGVETAEDAQKYLAIADELFGADWADARHYRFGASSLLASLLKALGHGDGKSASSY

Legend:
[1] = tested on: E. coli SELECT (Δace, adhC, DE3) cells; assay: In vivo selection: growth of E. coli SELECT with supplementation substrates; assay type: cell-based; details: for toxicity of supplementation substrate to SELECT cells: together with sodium acetate
Source text: SELECT was transformed with the DERA expressing plasmid, pET30a WT DERA, and growth conditions were then optimized for the expression of soluble active DERA enzyme. Selection conditions were further optimized using DERA's natural substrate DRP as a supplementation substrate and FIG. 6 illustrates that viable selection conditions are achieved. In the absence of 2-carbon supplementation, neither SELECT cells transformed with a plasmid which expresses WT DERA nor those transformed with a nonexpressing plasmid (−) grow. By contrast, both grow in the presence of sodium acetate supplementation. […] Proof of principle for this selection system arises from the fact that only E. coli SELECT cells transformed with plasmid that expresses WT DERA grow when DRP is used as the supplementation substrate. Furthermore, that the endogenous genomic E. coli DERA is not expressed at a sufficiently high level to affect the use of DRP as a 2-carbon source by virtue of its metabolism to acetaldehyde and D-glyceraldehyde-3-phosphate was established. […] A novel activity-based selection system is thus established and can be used to select for a DERA variant which can catalyze the retro-aldol reaction of DR and other nonphosphorylated substrates. Work is in progress to identify novel DERA variants for this purpose.
Plasmids were transformed into electrocompetent SELECT cells and subjected to 1 h outgrowth at 37° C. in 1 mL SOC medium supplemented with 0.1% sodium acetate. The cells were then collected by centrifugation at 4° C., 3000 rpm for 10 min. The supernatant was discarded and the pellet gently resuspended M9 0.2% glucose. This was repeated twice. The cells were then diluted to OD600=0.001 in M9 0.2% glucose, 0.01 mM IPTG, 10 μg/mL kanamycin. The appropriation supplementation substrate (sodium acetate, D-2-deoxyribose-phosphate or D-2-deoxyribose) was then added at 0.1% w/w concentration. After an appropriate selection time at 37° C., typically 24-72 h, the cells were harvested by centrifugation and their amplified plasmids isolated.

[2] = Sequential asymmetric aldol reaction with azidoaldehyde acceptor; assay type: biochemical; details: 3-azidopropinaldehyde acceptor, two molecules of acetaldehyde as donor
[3] = DERA addition (aldol) assay; assay type: biochemical; details: spectrophotometric coupled-assay of substrate consumption and TLC of product formation
Method: DERA enzyme activity was assayed in the aldol synthesis direction by determining the concentration of acetaldehyde remaining by a coupled endpoint assay with yeast alcohol dehydrogenase (YADH, EC 1.1.1.1). 200 mM acetaldehyde, which had been freshly distilled under anerobic conditions, 200 mM (±)-glyceraldehyde and 0.2 mg/mL DERA in 50 mM triethanolamine, pH 7.5 buffer which had been deoxygenated with N2, were incubated under an N2 atmosphere at 22° C. At various time points, 50 μL aliquots were withdrawn and quenched into 15 μL of 60% perchloric acid. After a 5 min incubation on ice, 890 μL 1 M triethanolamine, pH 7.5 buffer and 45 μL 4 N NaOH were added to neutralize the solution. 20 μL of this solution was then assayed for remaining acetaldehyde. The amount of acetaldehyde remaining was equated to moles NADH consumed, as determined in triethanolamine pH 7.5 buffer containing 0.3 mM NADH, 20 μL the above quenched reaction aliquot and 0.05 mg/mL YADH. DR product formation was also confirmed by silica gel TLC with ethylacetate running solvent and p-anisaldehyde developing stain. Rf: glyceraldehyde=0.04 (stains brown) Rf:2-deoxyribose=0.1 (stains blue).

[4] = DERA cleavage (retroaldol) coupled assay, natural substrate DRP; assay type: biochemical; details: for Km / kcat: retro-aldol, pH 7.5, 25° C.; for activity / kcat/KM with the natural substrate DRP, in words: compared to WT
Method: (§1) Enzyme activity was monitored by the standard coupled assay using α-Glycerophosphate Dehydrogenase (α-GPD, EC 1.1.18), and Triosephosphate Isomerase (TPI, EC 5.3.1.1). Enzyme activity was assayed in the retro-aldol, decomposition direction with 0.01-4 mM D-2-deoxyribose-5-phosphate (DRP) or 5 to 200 mM D-2-deoxyribose in 50 mM triethanolamine hydrochloride pH 7.5 buffer using a GPD/TPI (1.6 U/mL Sigma G-1881) coupled enzyme system at 25° C. in the presence of 0.3 mM NADH by observing the rate of decrease of NADH concentration as monitored at 340 nm, ε=6220 M^−cm^−1.

[5] = DERA cleavage (retroaldol) coupled assay, unnatural substrate DR; assay type: biochemical; details: for ratio of specificity constants {kcat/KM (DR)}/{kcat/KM (DRP)}: DR compared to DRP, read; for activity / specificity with DR, in words: compared to WT; for Km / kcat: retro-aldol, pH 7.5, 25° C.
Method: as §1

[6] = DERA catalysis with 2-methyl-3-hydroxypropinaldehyde as acceptor; assay type: biochemical; details: L-2-methyl derivative as substrate

Molecule | toxicity of supplementation substrate to SELECT cells [1] | acceptance of the azidoaldehyde as substrate [2] | relative activity of the DERA variants in the aldol direction [3] | Km [4] [mM] | kcat [4] [s⁻¹] | growth of SELECT cells transformed with expressing plasmid ([1]; DRP as the supplementation substrate) | ratio of specificity constants {kcat/KM (DR)}/{kcat/KM (DRP)} [5] | activity / specificity with DR, in words ([5]; substrate DR) | Km ([5]; substrate DR) [mM] | kcat ([5]; substrate DR) [s⁻¹] | improvement in kcat/KM compared to that of the wild type [6] [fold] | activity / kcat/KM with the natural substrate DRP, in words [4] | improvement in kcat/KM compared to WT-DERA ([5]; substrate DR) [fold] | decrease in kcat/KM ([5]; substrate DR) [fold]
O=CC[C@@H](O)[C@H](O)CO [DR, D-2-deoxyribose] | neither of these supplementation substrates nor their metabolic products are toxic to the cells | – | – | – | – | – | – | – | – | – | – | – | – | –
O=CC[C@@H](O)[C@H](O)COP(=O)(O)O [DRP, D-2-deoxyribose-5-phosphate] | neither of these supplementation substrates nor their metabolic products are toxic to the cells | – | – | – | – | – | – | – | – | – | – | – | – | –
WT: wild-type E. coli 2-deoxyribose-5-phosphate aldolase (DERA, EC 4.1.2.4) | – | not a substrate; also recorded: inactive | S238˜DS239W>WT>R207E>K172E>G205E | 0.64 ± 0.01 | 68 ± 1 | grow | 1.9 × 10^−5 | cannot accept the unnatural substrate DR efficiently | 57 ± 7 | 0.107 ± 0.005 | – | – | – | –
B1 | – | catalyzes a novel sequential aldol reaction; also recorded: accepts 3-azidopropionaldehyde as a new substrate | S238˜DS239W>WT>R207E>K172E>G205E | 61 ± 11 | 0.58 ± 0.05 | – | 0.13 | – | 39 ± 6 | 0.21 ± 0.01 | 5 | substantially decreased | 2.5 | –
B2 | – | – | S238˜DS239W>WT>R207E>K172E>G205E | – | – | – | 3.1 × 10^−3 | virtually inactive | – | – | – | virtually inactive | – | –
B3 | – | – | S238˜DS239W>WT>R207E>K172E>G205E | – | – | – | 0.27 | – | 63 ± 22 | 0.022 ± 0.02 | – | – | – | 5
B4 | – | – | S238˜DS239W>WT>R207E>K172E>G205E | – | – | – | 2.2 | virtually unchanged | 33 ± 3 | 0.064 ± 0.001 | – | – | – | –
